These results are taken from IntAct's records for PubMed 18052611.

First the molecules themselves.
B1: Protein matrimony (Drosophila melanogaster (Fruit fly)), Q23973 (parent)
chain: MENSRTPTNKTKITLNRTPTLKERRWNTLKVNTSNVRCSTPIFGNFRSPNLSPIENMGTKGKSPVSPMRFATFKKVPTKVHPKQQQQQQHQHCHRTQLKPPPFVLPKPQEEIIEPEREIKSCSSPDTCSDDSNMETSLALESRRRSIKASNHSYVVNHAANVEQILMHMGLENYVTNFEEAHIDLVELASLERADLVKIGLNTDEDCNRIMDVLHTL
partner: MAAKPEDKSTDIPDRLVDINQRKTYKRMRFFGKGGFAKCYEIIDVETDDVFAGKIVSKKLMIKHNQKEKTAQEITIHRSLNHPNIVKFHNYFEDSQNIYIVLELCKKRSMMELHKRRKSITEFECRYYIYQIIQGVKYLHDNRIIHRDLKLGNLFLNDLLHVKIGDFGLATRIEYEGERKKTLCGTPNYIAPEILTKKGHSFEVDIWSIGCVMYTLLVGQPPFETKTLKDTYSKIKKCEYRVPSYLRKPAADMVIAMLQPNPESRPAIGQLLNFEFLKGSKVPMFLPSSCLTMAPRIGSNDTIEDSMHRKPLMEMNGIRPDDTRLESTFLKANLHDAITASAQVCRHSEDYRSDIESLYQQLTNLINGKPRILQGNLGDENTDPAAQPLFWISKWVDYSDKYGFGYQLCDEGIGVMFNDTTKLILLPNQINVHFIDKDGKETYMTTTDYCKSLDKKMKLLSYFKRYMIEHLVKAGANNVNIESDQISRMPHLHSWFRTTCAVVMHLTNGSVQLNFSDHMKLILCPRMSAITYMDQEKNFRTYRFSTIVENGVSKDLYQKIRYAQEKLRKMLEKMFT

In the test the parent is B1. As to conditions: with polo_drome polo.
For MENSRTPTNKTKITLNRTPTLKERRWNTLKVNTSNVRCSAPIFGNFRSPNLSPIENMGTKGKSPVSPMRFATFKKVPTKVHPKQQQQQQHQHCHRTQLKPPPFVLPKPQEEIIEPEREIKSCSSPDTCSDDSNMETSLALESRRRSIKASNHSYVVNHAANVEQILMHMGLENYVTNFEEAHIDLVELASLERADLVKIGLNTDEDCNRIMDVLHTL [T40A], the “effect of a mutation on the interaction” value is “disrupting interaction”.
